For the assay, the target named is soluble trimeric SARS-CoV-2 spike protein (residues 1-1208) (SARS-CoV-2), P0DTC2. The experiment in a line: SPR. To be noted: remark: other sources report otherwise.

As usually defined, the Kd is the constant that tells how readily two partners part at equilibrium. Lower therefore signals a tighter complex.

A value given as a limit tells only on which side of the number the result lay.

B1: soluble recombinant human DPP4 (residues 29-766), His6-tagged, P27487 29-766 (enzyme)
chain: NKGTDDATADSRKTYTLTDYLKNTYRLKLYSLRWISDHEYLYKQENNILVFNAEYGNSSVFLENSTFDEFGHSINDYSISPDGQFILLEYNYVKQWRHSYTASYDIYDLNKRQLITEERIPNNTQWVTWSPVGHKLAYVWNNDIYVKIEPNLPSYRITWTGKEDIIYNGITDWVYEEEVFSAYSALWWSPNGTFLAYAQFNDTEVPLIEYSFYSDESLQYPKTVRVPYPKAGAVNPTVKFFVVNTDSLSSVTNATSIQITAPASMLIGDHYLCDVTWATQERISLQWLRRIQNYSVMDICDYDESSGRWNCLVARQHIEMSTTGWVGRFRPSEPHFTLDGNSFYKIISNEEGYRHICYFQIDKKDCTFITKGTWEVIGIEALTSDYLYYISNEYKGMPGGRNLYKIQLSDYTKVTCLSCELNPERCQYYSVSFSKEAKYYQLRCSGPGLPLYTLHSSVNDKGLRVLEDNSALDKMLQNVQMPSKKLDFIILNETKFWYQMILPPHFDKSKKYPLLLDVYAGPCSQKADTVFRLNWATYLASTENIIVASFDGRGSGYQGDKIMHAINRRLGTFEVEDQIEAARQFSKMGFVDNKRIAIWGWSYGGYVTSMVLGSGSGVFKCGIAVAPVSRWEYYDSVYTERYMGLPTPEDNLDHYRNSTVMSRAENFKQVEYLLIHGTADDNVHFQQSAQISKALVDVGVDFQAMWYTDEDHGIASSTAHQHIYTHMSHFIKQCFSLP
As to B1, the dissociation constant (Kd) is > 10 µM.

The record behind these values is PMC7698748.
